Results on one molecule are retold here after publication PMC10711807 (The Journal of Cell Biology, 2023).

The target of this test is TOLLIP, recombinant from bacteria, biotinylated (human, UniProt Q9H0E2 1-274, biotin (biotinylated TOLLIP; site not told)). The experiment in a line: BLI.

B1: GST-BLK (B lymphoid tyrosine kinase), recombinant from bacteria (enzyme)
chain: not shown
modifications: autophosphorylated as purified (Fig. S5 C); sites not told for this sample
As for B1, the Kd is around 8.39 nM.
